Data taken from patent publication US20250041325A1.

Biological target: CXCR4 receptor on the surface of RIL-175 murine HCC cells (murine (endogenous on murine RIL-175 HCC cells)) (UniProt P70658)
Assay: cell-based or functional assay

Chain of UniProt P70658 (P70658 whole entry): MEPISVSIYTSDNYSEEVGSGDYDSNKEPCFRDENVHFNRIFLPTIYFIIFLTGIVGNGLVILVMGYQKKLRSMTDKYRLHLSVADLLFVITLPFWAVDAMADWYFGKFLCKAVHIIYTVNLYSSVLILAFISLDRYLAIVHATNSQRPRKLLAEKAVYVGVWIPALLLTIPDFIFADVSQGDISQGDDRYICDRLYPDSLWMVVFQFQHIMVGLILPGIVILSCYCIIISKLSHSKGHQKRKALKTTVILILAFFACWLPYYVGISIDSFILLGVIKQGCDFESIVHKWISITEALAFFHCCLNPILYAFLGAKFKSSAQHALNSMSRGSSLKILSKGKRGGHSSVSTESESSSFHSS

cellular uptake in RIL-175 cells (flow cytometry of EGFP), 5% CTCE-EGFP NPs versus 5% SCP-EGFP NPs (scrambled peptide, SEQ ID NO: 2): > 15 fold
mean fluorescence intensity of EGFP in transfected RIL-175 cells (flow cytometry), CTCE-EGFP NPs versus SCP-EGFP NPs: 4.5 fold
Substance: CTCE-9908 peptide conjugated to DSPE-PEG and displayed on polymer-lipid hybrid mRNA nanoparticles (DSPE-PEG-CTCE; CTCE-mRNA NPs)
